# Experimental data as given in publication PMC7150778 (2020).
# Like-named read-outs stand apart in the source and are kept apart here.
# B1: 1918 NS1 ED-ΔCTT (protein)
# chain: TMASVPASRYLTDMTLEELSRDWSMLIPKQKVAGPLCIRMDQAIMDKNIILKANFSVIFDRLETLILLRAFTEEGAIVGEISPLPSLPGHTAEDVKNAVGVLIGGLEWNDNTVRVSETLQRFAWRSSNENGRPPLTPKQKREMAGTIRSEV
# B2: 1918 NS1 ED-CTT (protein)
# chain: B1 chain
# Key:
# p85β iSH2 [1] = biological target: p85β iSH2 (UniProt O00459); details: cited from earlier work
# [2] = biological target: NS1 ED (Influenza A virus) (UniProt P69278); details: cited from earlier work
# p85β iSH2 [3] = biological target: T1, p85β iSH2 (UniProt O00459)
# T1 chain: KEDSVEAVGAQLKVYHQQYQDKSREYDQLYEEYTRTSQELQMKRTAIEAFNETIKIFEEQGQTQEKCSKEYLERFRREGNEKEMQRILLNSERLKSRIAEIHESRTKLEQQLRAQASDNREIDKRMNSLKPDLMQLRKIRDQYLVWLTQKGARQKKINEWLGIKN
Molecule,Kd (p85β iSH2 [3]) [nM],also measured
1918 NS1 ED-CTT (from UniProt Q0PDM0),,Kd (p85β iSH2 [1]): 300 nM
NS1 ED (from UniProt P69278),,Kd [2]: 89000 nM
B1,370,
B2,700,
